The target in experiment [1] is WT CA nanotubes (pre-formed tubular assemblies of wild-type HIV-1 CA, hexameric lattices) (HIV-1). Kind of experiment: co-sedimentation; recombinant GST proteins added to pre-formed WT CA nanotubes, 30 min at 4 °C, 21,000 g for 5 min, pellets washed three times; SDS-PAGE or immunoblot. As to conditions: scale: GST-CPSF6(LCR-FG-LCR) molecules per CA hexamer. In general terms: Immunoblotting shows a protein as a band on a membrane.

Experiment [2] concerns the target isolated native HIV-1 cores (HIV-1). Kind of experiment: pull-down.
The target is the same in experiment [3]. Kind of experiment: pull-down. This is another data set of the same source.
Experiment [4] deals with Cross-linked His-CAhex: disulfide-stabilized hexamer of 6-His-CA(A14C/E45C/W184A/M185A) (HIV-1). Kind of experiment: SPR; Reichert 4-SPR; cross-linked His-CAhex immobilised on an NTA chip via the C-terminal His-tag; peptides 3.9 μM to 2 mM; 0.01 M HEPES pH 7.4, 0.15 M NaCl, 0.05% v/v Surfactant P20; simple kinetic model. A general note: In SPR one partner is held on a chip, and binding of the other changes the refractive index at the surface.

The record followed here is paper PMC9537594.

Where two headings read alike, the source gives them in different places.

For orientation: stoichiometry N means a count of units in the complex or per binding partner. As to “GST-CPSF6_(261-358)(LCR-FG-LCR) (from UniProt Q16630-2 261-358) (domain or fragment)”, the stoichiometry N in experiment [1] came to 2.4.

A word on the Kd: it is the constant that tells how readily two partners part at equilibrium. As to “GST-CPSF6261-358(LCR-FG-LCR) (domain or fragment)”, the Kd stood at 890 nM in experiment [2] and 810 nM in experiment [3].

In experiment [4], “NUP153_(1409-1423) 15-mer FG peptide (from UniProt P49790 1409-1423)” displayed a Kd of 131000 nM.
